Test results: publication PMC2289477

Molecular target: profilin from bovine brain (profilin of the high-affinity profilactin complex) (bovine (endogenous in bovine brain)) (UniProt P02584)
Sequence of UniProt P02584 (P02584 whole entry, one chain of several): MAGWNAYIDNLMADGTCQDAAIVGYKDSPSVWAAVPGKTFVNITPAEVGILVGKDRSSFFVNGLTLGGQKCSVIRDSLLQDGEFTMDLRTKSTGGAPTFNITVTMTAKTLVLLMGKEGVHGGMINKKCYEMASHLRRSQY

- stoichiometry N (actin/profilin molar ratio): 1
Substance: actin from bovine brain (actin of the high-affinity profilactin complex) (from UniProt P60712 1-375) (natural protein)
